This is an account of results in US9115383B2, “Fluorescence assay for ghrelin O-acyltransferase activity” (Syracuse University, priority 2012, dated 2015).

No end group written: not given here. *: point of attachment. acrylodan = acrylodan label (AcDan) on Cys, CN(C)c1ccc2cc(C(=O)CC*)ccc2c1; Dansyl = CN(C)c1cccc2c(S(=O)(=O)*)cccc12

The target in the assay is T1, hGOAT (Homo sapiens, UniProt Q96T53).
T1 construct: the gene for hGOAT was cloned with a C-terminal His10 tag into the pFastBacDual vector; His10 (C); made in house; host or cells: Sf9 insect cells, baculovirus (pFastBacDual); used as membrane fraction
T1 sequence (Q96T53 1-435): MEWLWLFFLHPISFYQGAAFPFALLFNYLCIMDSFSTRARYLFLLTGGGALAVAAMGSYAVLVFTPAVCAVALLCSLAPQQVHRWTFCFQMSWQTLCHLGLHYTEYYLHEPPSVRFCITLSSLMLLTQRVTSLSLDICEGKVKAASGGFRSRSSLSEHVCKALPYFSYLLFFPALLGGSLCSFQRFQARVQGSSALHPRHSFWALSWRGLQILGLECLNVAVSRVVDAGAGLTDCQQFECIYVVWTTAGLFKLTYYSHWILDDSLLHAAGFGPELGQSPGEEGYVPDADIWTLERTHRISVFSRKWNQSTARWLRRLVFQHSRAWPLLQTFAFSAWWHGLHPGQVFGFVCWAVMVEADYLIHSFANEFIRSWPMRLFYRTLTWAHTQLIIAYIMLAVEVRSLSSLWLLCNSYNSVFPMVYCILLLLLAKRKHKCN
Nature of the assay: hGOAT-catalysed octanoylation of fluorescent ghrelin peptide substrates, RP-HPLC with fluorescence detection. Format: biochemical. The following applies: for modification (octanoylation) by hGOAT: RP-HPLC with fluorescence detection, hGOAT-His10 membranes vs mock membranes; for Active with hGOAT?: peptide tested as substrate, hGOAT-His10 membranes in parallel with mock membranes; for activity with hGOAT (substrate selectivity at N-terminus, G1 and S2): ghrelin mimic peptide mutants, FIG. 5. The procedure: FIG. 3 is a schematic of ghrelin peptide acylation reactions with the fluorescent GSSFLCAcDan substrate, where (A) is a reaction with control/mock membrane fraction; (B) is a time course for GSSFLCAcDan acylation using GOAT membrane fraction, and where the assays were incubated for 1-10 minutes at 37° C. and all reactions were analyzed using reverse-phase HPLC under the following assay conditions: 10 μM peptide, 50 μg membrane protein, 500 μM octanoyl coenzyme A, 100 μM palmitoyl coenzyme A, 50 mM HEPES buffer pH 7.0.
In order to test the activity of peptide substrates, the gene for hGOAT was cloned with a C-terminal His10 tag into the pFastBacDual vector and expressed using standard baculoviral procedures.
With the peptide substrates, the addition of the hydrophobic octanoyl group upon serine acylation at position 3 leads to an increase in retention time in reverse-phase (RP) HPLC. The panel of fluorescent ghrelin peptide substrates was assayed for activity with hGOAT using HPLC coupled with fluorescence detection of the fluorescently labeled peptides. All reactions with hGOAT-His 10 membranes were performed in parallel with mock membranes to account for nonspecific peptide modifications.
An assay for human ghrelin O-acyltransferase activity was performed using hGOAT expressed from insect (Sf9) cells using standard baculoviral methods and a fluorescent 6-mer peptide synthesized by a single step reaction followed by high performance liquid chromatography (HPLC) purification. The assay was performed at room temperature using hGOAT membrane protein, octanoyl-CoA, a fluorescent ghrelin peptide, a buffer, and a detergent. Activity may be measure by detecting the presence of any octanoylation of the ghrelin peptide. For example, the presence of octanoylated ghrelin peptide may be confirmed by HPLC or by using a fluorescent system whose fluorescence will increase as a result of octanoylation of the ghrelin peptide.

Regarding “Dansyl-GSSFLS (SEQ. ID No. 2) (ends and bridges not checked) [Substrate 1-Dansyl, ghrelin mimic peptide with N-terminal dansyl fluorophore]”, the “modification (octanoylation) by hGOAT” value was “not modified by hGOAT” and the “Active with hGOAT?” value is recorded as “No”. The like results for “GCAcDanSFLS (SEQ. ID No. 3) (GC(acrylodan)SFLS; ends and bridges not checked) [AcDan-2, ghrelin mimic peptide with acrylodan on cysteine at position 2]” were, in that order, “not modified by hGOAT” and “No”. Consider “GSSFCAcDanS (SEQ. ID No. 4) (GSSFC(acrylodan)S; ends and bridges not checked) [AcDan-5, ghrelin mimic peptide with acrylodan on cysteine at position 5]”, for which the “modification (octanoylation) by hGOAT” value is recorded as “yielded the octanoylated peptide with increased retention time” and the “Active with hGOAT?” value was “Yes”. As to GSSFLCAcDan (SEQ. ID No. 5) [AcDan-6], the “modification (octanoylation) by hGOAT” value is given as “yielded the octanoylated peptide with increased retention time” and the “Active with hGOAT?” value is reported as “Yes”. For the substance [Ac]GSSFLC (SEQ. ID No. 1), the “activity with hGOAT (substrate selectivity at N-terminus, G1 and S2)” value is “low activity”.

With “[Ac]SSFLC (SEQ. ID No. 6) (Ac-SSFLC; not fully specified; ends and bridges not checked) [N-terminally acetylated ghrelin mimic peptide lacking G1]”, the “activity with hGOAT (substrate selectivity at N-terminus, G1 and S2)” value is “no activity”.
